Experimental data taken from patent publication US20220259593A1, “CONTROL OF MAMMALIAN GENE DOSAGE USING CRISPR” (The Regents of the University of California, priority 2019, published 2022).

B1: cr563 (nucleic acid)
guide: GTTTAAGAGCTAAGCTGGAAACAGCATAGCAAGTTTAAATAAGGCTAGTCCGTTATCAAGCTGAAAAGCTGGCACCGAGTCGGTGCT
modifications: listed as DNA, chemistry not fully specified
B2: cr176 (nucleic acid)
guide: GTTTAAGAGCTAAGCTGGAAACAGCATAGCAAGTTTAAATAAGGCTAGTCCGTTATCAGCTTGAAAAAGCGGCACCGAGTCGGTGCT
modifications: listed as DNA, chemistry not fully specified
B3: cr624 (nucleic acid)
guide: GTTTAAGAGCTAAGCTGGAAACAGCATAGCAAGTTTAAATAAGGCTAGTCCGTTGTCAACTTGAAAAAGTGGCACCGAGTCGGTGCT
modifications: listed as DNA, chemistry not fully specified
B4: cr843 (nucleic acid)
guide: GTTTAAGAGCTAAGCTGGAATCAGCATAGCAAGTTTAAATAAGGCTAGTCCGTTATCAACTTGAAAAAGTGGCACCGAGTCGGTGCT
modifications: listed as DNA, chemistry not fully specified
B5: cr811 (nucleic acid)
guide: GTTTAAGAGCTAAGCTGGAAACAGTATAGCAAGTTTAAATAAGGCTAGTCCGTTATCAACTTGAAAAAGTGGCACCGAGTCGGTGCT
modifications: listed as DNA, chemistry not fully specified
B6: cr855 (nucleic acid)
guide: GTTTAAGAGCTAAGCTGGAAACAGCATAGCAAGTTTAAATAAGGCCAGTCCGTTCTCAACTTGACAAAGTGGCACCGAGTCGGTGCT
modifications: listed as DNA, chemistry not fully specified
B7: cr747 (nucleic acid)
guide: GTTTAAGAGCTAAGCTGGAAACAGCATAGCAAGTTTAAATAAGGCTAGTCCGTTATCACCTTGAGAAAGGGGCACCGAGTCGGTGCT
modifications: listed as DNA, chemistry not fully specified
B8: cr340 (nucleic acid)
guide: GTTTAAGAGCTAAGCTGGAAACAGCATAGCAAGTTTAAATAAGGCTAGTCCGTTATCAACTGGAAAAAGTGGCACCGAGTCGGTGCT
modifications: listed as DNA, chemistry not fully specified
B9: cr906 (nucleic acid)
guide: GTTTAAGAGCTAAGCTGGAAACAGCATAGCAAGTTTAAATAAGGCTAGTCCGTTATCAACTTGAGAAAGTGGCAGCGAGTCGCTGCT
modifications: listed as DNA, chemistry not fully specified
B10: cr969 (nucleic acid)
guide: GTTTAAGAGCTAAGCTGGAAACAGCATAGCAAGTTTAAATAAGGCTAGTCCGTTATCATCTTGAGAAAGAGGCACCGAGTCGGTGCT
modifications: listed as DNA, chemistry not fully specified
B11: cr754 (nucleic acid)
guide: GTTTAAGAGCTAAGCTGGAAACAGCATAGCAAGTTTAAATAAGGCTAGTCCGTTATCAACTTTAAAAAGTGGCACCGAGTCGGTGCT
modifications: listed as DNA, chemistry not fully specified
B12: cr578 (nucleic acid)
guide: GTTTAAGAGCTAAGCTGGAAACAGCATAGCGAGTTTAAATAAGGCTAGTCCGTTATCAACTTGATAAAGTGGCACCGAGTCGGTGCT
modifications: listed as DNA, chemistry not fully specified
B13: cr918 (nucleic acid)
guide: GTTTAAGAGCTAAGCTGGAAACAGCATAGCAAGTTTAAATAAGGCTAGTCCGTTATCATCTTGAAAAAGAGGCACCGAGTCGGTGCT
modifications: listed as DNA, chemistry not fully specified
B14: cr782 (nucleic acid)
guide: GTTTAAGAGCTAAGCTGGAAACAGCATAGCAAGTTTAAATAAGGCTAGTCCGTTATCAACTTTAGAAAGTGGCACCGAGTCGGTGCT
modifications: listed as DNA, chemistry not fully specified
B15: cr346 (nucleic acid)
guide: GTTTAAGAGCTAAGCTGGAAACAGCATAGCAAGTTTAAATAAGGCTAGTCCGTTATCACATTGAAAAATGGTCACCGAGTCGGTGAT
modifications: listed as DNA, chemistry not fully specified
B16: cr926 (nucleic acid)
guide: GTTTAAGAGCTAAGCTGGAAACAGAATAGCAAGTTTAAATAAGGCTAGTCCGTTATCAACTTGAAAAAGTGGCACCGAGTCGGTGCT
modifications: listed as DNA, chemistry not fully specified
B17: cr226 (nucleic acid)
guide: GTTTAAGAGCTAAGCTGGAAACAGCATAGCAAGTTTAAATAAGGCTAGTCCGTTATCAACTTGAAAAAGTGGCCACGAGTCGTGGCT
modifications: listed as DNA, chemistry not fully specified
B18: cr270 (nucleic acid)
guide: GTTTAAGAGCTAAGCTGGAAACAGCATAGCAAGTTTAAATAAGGCTAGTCCGTTATCATCCTGAAAAGGAGGCACTGAGTCAGTGCT
modifications: listed as DNA, chemistry not fully specified
B19: cr251 (nucleic acid)
guide: GTTTAAGAGCTAAGCTGGAAACAGCATAGCAAGTTTAAATAAGGCTAGTCCGTGATCAACTTGTAAAAGTGGCACCGACTCGGTGCT
modifications: listed as DNA, chemistry not fully specified
B20: cr368 (nucleic acid)
guide: GTTTAAGAGCTAAGCTGGAAACAGCATAGCAAGTTTAAATAAGGCTAGTCCGTTATCACATTGAAAAATGGGCACCGAGTCGGTGCT
modifications: listed as DNA, chemistry not fully specified
B21: cr970 (nucleic acid)
guide: GTTTAAGAGCTAAGCTGGAAACAGCATAGCAAGTTTAAATAAGGCTAGTCCGTTATCAACTTGTTAAAGTGGCACCGAGTCGGTGCT
modifications: listed as DNA, chemistry not fully specified
B22: cr238 (nucleic acid)
guide: GTTTAAGAGCTAAGCTGGAAACAGCATAGCAAGTTTAAATAAGGCTAGTCCGTTATCAACTTGAAAAAGTGGCTTCGAGTCGAAGCT
modifications: listed as DNA, chemistry not fully specified
B23: cr670 (nucleic acid)
guide: GTTTAAGAGCTAAGCTGGAAACAGCATAGCAAGTTTAAATAAGGCTAGTCCGTTATCAACTTGAAAAAGGGGCACCGAGTCGGTGCT
modifications: listed as DNA, chemistry not fully specified
B24: cr609 (nucleic acid)
guide: GTTTAAGAGCTAAGCTGGAAACAGCATAGCATGTTTAAATAAGGCTAGTCCGTTATCAACTTAAAAAAGTGGCACCGAATCGGTGCT
modifications: listed as DNA, chemistry not fully specified
B25: cr353 (nucleic acid)
guide: GTTTAAGAGCTAAGCTGGAAACAGCATAGCAAGTTTAAATAAGGCTAGTCCGTTATCAACTAGAAAAAGTGGCACCGAGTCGGTGCT
modifications: listed as DNA, chemistry not fully specified
B26: cr671 (nucleic acid)
guide: GTTTAAGAGCTAAGCTGGAAACAGCATAGCAAGTTTAAATAAGGCTAGTCCGTTATCAACTTGAAAAGGTGGCACCGAGTCGGTGCT
modifications: listed as DNA, chemistry not fully specified
B27: cr258 (nucleic acid)
guide: GTTTAAGAGCTAAGCTGGAAACAGCATAGCAAGTTTAAATAAGGCTAGACCGTTATCAACTTGAAAAAGTGGCACCGAGTCGGTGCT
modifications: listed as DNA, chemistry not fully specified
B28: cr478 (nucleic acid)
guide: GTTTAAGAGCTAAGCTGGAAACAGCATGGCAAGTTTAAATAAGGCTAGTCCGTTATCAACTTGAAAAAGTGGCACCGAGTCGGTGCT
modifications: listed as DNA, chemistry not fully specified
B29: cr973 (nucleic acid)
guide: GTTTAAGAGCTAAGCTGGAAACAGCATAGCAAGTTTAAATAAGGCTAGTCCGTTATCAACTTAAAAAAGTGGCACCGAGTCGGTGCT
modifications: listed as DNA, chemistry not fully specified
B30: cr669 (nucleic acid)
guide: GTTTAAGAGCTAAGCTGGAAACAGCATAGCAAGTTTAAATAAGGCTAGTCCGTTATCAACTTGAAAAAGTGGCACCGAATCGGTGCT
modifications: listed as DNA, chemistry not fully specified

tested on: K562 CRISPRi cells; test: Constant region variant library pooled growth screen, K562; type: cell-based, human; conditions: sgRNA constant region variants; activity relative to the original, un-modified constant region cr995
In short: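 K562 CRISPRi, duplicate transductions; puromycin 1 d 0.75 μg/mL then 1 d 0.85 μg/mL; >2000× coverage in spinner flasks; harvests at 4-8 d growth. Activity = phenotype ÷ phenotype with unmodified constant region.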

Going from B1 to B2, the Mean relative activity falls from 1.068 to 1.067.

same assay, conditions: sgRNA constant region variants; activity relative to the un-modified constant region cr995

Compared with B3, B4 is higher in Mean relative activity: 0.9799 for the first, 0.9823 for the second.

First: B5
Second: B6
The Mean relative activity of the first is lower: 0.9803 for the first, 0.9849 for the second.

First: B7
Second: B8
The Mean relative activity of the first is lower: 0.9812 for the first, 0.9853 for the second.

First: B9
Second: B10
The Mean relative activity of the first is higher: 0.9817 for the first, 0.9815 for the second.

Going from B11 to B12, the Mean relative activity rises from 0.9804 to 0.9852.

Compared with B13, B14 is lower in Mean relative activity: 0.982 for the first, 0.9816 for the second.

First: B15
Second: B16
The Mean relative activity of the first is higher: 0.9847 for the first, 0.9811 for the second.

Going from B17 to B18, the Mean relative activity rises from 0.9795 to 0.9835.

B19 and B20 are the same in Mean relative activity: 0.9836 for the first, 0.9836 for the second.

Going from B21 to B22, the Mean relative activity falls from 0.9826 to 0.9809.

same assay, conditions: sgRNA constant region variants; relative to the original, un-modified constant region cr995 (= 1)

Going from B23 to B24, the Mean relative activity falls from 0.9903 to 0.9895.

Going from B25 to B26, the Mean relative activity falls from 0.9885 to 0.9864.

Going from B27 to B28, the Mean relative activity rises from 0.9863 to 0.9898.

First: B29
Second: B30
The Mean relative activity of the first is lower: 0.9873 for the first, 0.9881 for the second.
